{
  "source": "patent US8673862",
  "about": "(dated 2014)",
  "data": [
    {"target": "T1, angiotensin converting enzyme (ACE) (UniProt P12821)", "T1 chain": "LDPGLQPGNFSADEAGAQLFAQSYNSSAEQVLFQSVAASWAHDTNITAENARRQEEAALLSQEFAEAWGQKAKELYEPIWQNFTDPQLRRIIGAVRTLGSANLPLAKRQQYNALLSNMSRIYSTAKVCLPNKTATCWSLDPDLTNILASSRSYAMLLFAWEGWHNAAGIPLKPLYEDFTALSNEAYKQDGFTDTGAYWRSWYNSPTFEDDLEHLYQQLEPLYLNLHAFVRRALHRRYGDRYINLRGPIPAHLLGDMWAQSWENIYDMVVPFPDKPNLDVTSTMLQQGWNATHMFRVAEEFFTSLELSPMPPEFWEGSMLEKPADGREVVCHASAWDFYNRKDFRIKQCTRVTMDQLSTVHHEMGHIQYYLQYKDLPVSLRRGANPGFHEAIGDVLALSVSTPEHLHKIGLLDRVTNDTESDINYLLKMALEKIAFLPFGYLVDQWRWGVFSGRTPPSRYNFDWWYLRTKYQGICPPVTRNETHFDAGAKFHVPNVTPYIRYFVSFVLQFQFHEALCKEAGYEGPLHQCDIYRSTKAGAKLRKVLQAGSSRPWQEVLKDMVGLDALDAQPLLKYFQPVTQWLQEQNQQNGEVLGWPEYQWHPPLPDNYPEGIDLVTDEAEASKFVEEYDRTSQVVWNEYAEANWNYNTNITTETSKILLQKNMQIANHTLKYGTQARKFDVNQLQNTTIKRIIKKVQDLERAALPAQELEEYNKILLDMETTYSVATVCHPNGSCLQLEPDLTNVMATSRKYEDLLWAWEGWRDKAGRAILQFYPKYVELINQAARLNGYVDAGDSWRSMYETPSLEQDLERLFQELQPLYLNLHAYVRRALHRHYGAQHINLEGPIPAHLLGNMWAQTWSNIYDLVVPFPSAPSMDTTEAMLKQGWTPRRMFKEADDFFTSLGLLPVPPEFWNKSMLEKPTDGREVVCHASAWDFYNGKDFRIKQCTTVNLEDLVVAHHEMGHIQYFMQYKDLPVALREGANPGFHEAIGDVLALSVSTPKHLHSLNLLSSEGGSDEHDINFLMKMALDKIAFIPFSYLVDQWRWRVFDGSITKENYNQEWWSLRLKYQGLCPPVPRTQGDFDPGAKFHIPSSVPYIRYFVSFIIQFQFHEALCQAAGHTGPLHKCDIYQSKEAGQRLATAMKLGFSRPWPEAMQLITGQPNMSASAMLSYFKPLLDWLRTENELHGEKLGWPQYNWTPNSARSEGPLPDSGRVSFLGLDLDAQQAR", "assay": "other, ACE inhibition", "units": {"IC50": "µM"}, "values": [
      {"binder": "VGGS", "IC50": 35.5},
      {"binder": "NDEG", "IC50": 768},
      {"binder": "VVN", "IC50": 77},
      {"binder": "PDT", "IC50": 272},
      {"binder": "WN", "IC50": 368},
      {"binder": "FV", "IC50": 979},
      {"binder": "GLF", "IC50": 83},
      {"binder": "KK", "IC50": 921},
      {"binder": "TF", "IC50": 46.2},
      {"binder": "YY", "IC50": 257},
      {"binder": "LF", "IC50": 83},
      {"binder": "FVNHF", "IC50": 51.1},
      {"binder": "TSF", "IC50": 15.6},
      {"binder": "GNF", "IC50": 26.9},
      {"binder": "NSL", "IC50": 64.9},
      {"binder": "TYA", "IC50": 526},
      {"binder": "LL", "IC50": 345}
    ]}
  ]
}
